Test results: the supplement of paper PMC5998384

Legend:
HeLa Kyoto [1] = assay: solubility in G1/S (NP-40 vs SDS abundance) (log2 ratio); higher = more soluble; conditions: cell cycle stage: G1/S
HeLa Kyoto [2] = assay: solubility change mitosis vs G1/S (difference of NP-40 vs SDS log2 ratios) (log2 ratio difference); higher = more soluble in mitosis
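Throughout, for solubility change mitosis vs G1/S (difference of NP-40 vs SDS log2 ratios): synchronized HeLa Kyoto cells (double thymidine block for G1/S, nocodazole release for mitosis), protein amounts in NP-40 versus SDS lysates quantified by mass spectrometry, three biological replicates.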
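Throughout, for solubility in G1/S (NP-40 vs SDS abundance): HeLa Kyoto cells arrested at G1/S by double thymidine block, proteins quantified by TMT10plex mass spectrometry in mild NP-40 versus SDS extracts, three biological replicates.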

Sequence	solubility in G1/S (log2) (HeLa Kyoto [1])	solubility change mitosis (log2) (HeLa Kyoto [2])
MDPRVAWIQPEQKGPANALWMQIWETSQGVGRGGSGFASYFCLNSPALDTAAAAGAAGRGSGGLGPALPAASPPPPGPTAPAALPPALLTALGPAAEGARRLHKSPSLSSSSSSSSSNAESGTESPGCSSSSSSSASLGRPGGGRGGAFFNFADGAPSAPGTANGHPGPRGPAPAGSPSQHQFHPGRRKRENKASTYGLNYLLSGSRAAALSGGGGPGAQAPRPGTPWKSRAYSPGIQGLHEEIIDFYNFMSPCPEEAAMRREVVKRIETVVKDLWPTADVQIFGSFSTGLYLPTSDIDLVVFGKWERPPLQLLEQALRKHNVAEPCSIKVLDKATVPIIKLTDQETEVKVDISFNMETGVRAAEFIKNYMKKYSLLPYLILVLKQFLLQRDLNEVFTGGISSYSLILMAISFLQLHPRIDARRADENLGMLLVEFFELYGRNFNYLKTGIRIKEGGAYIAKEEIMKAMTSGYRPSMLCIEDPLLPGNDVGRSSYGAMQVKQVFDYAYIVLSHAVSPLARSYPNRDAESTLGRIIKVTQEVIDYRRWIKEKWGSKAHPSPGMDSRIKIKERIATCNGEQTQNREPESPYGQRLTLSLSSPQLLSSGSSASSVSSLSGSDVDSDTPPCTTPSVYQFSLQAPAPLMAGLPTALPMPSGKPQPTTSRTLIMTTNNQTRFTIPPPTLGVAPVPCRQAGVEGTASLKAVHHMSSPAIPSASPNPLSSPHLYHKQHNGMKLSMKGSHGHTQGGGYSSVGSGGVRPPVGNRGHHQYNRTGWRRKKHTHTRDSLPVSLSR [PAPD7]	-0.21	0.0856
MALKGRALYDFHSENKEEISIQQDEDLVIFSETSLDGWLQGQNSRGETGLFPASYVEIVRSGISTNHADYSSSPAGSPGAQVSLYNSPSVASPARSGGGSGFLSNQGSFEEDDDDDWDDWDDGCTVVEEPRAGGLGTNGHPPLNLSYPGAYPSQHMAFRPKPPLERQDSLASAKRGSVVGRNLNRFSCFVRSGVEAFILGDVPMMAKIAETYSIEMGPRGPQWKANPHPFACSVEDPTKQTKFKGIKSYISYKLTPTHAASPVYRRYKHFDWLYNRLLHKFTVISVPHLPEKQATGRFEEDFIEKRKRRLILWMDHMTSHPVLSQYEGFQHFLSCLDDKQWKMGKRRAEKDEMVGASFLLTFQIPTEHQDLQDVEDRVDTFKAFSKKMDDSVLQLSTVASELVRKHVGGFRKEFQKLGSAFQAISHSFQMDPPFCSEALNSAISHTGRTYEAIGEMFAEQPKNDLFQMLDTLSLYQGLLSNFPDIIHLQKGAFAKVKESQRMSDEGRMVQDEADGIRRRCRVVGFALQAEMNHFHQRRELDFKHMMQNYLRQQILFYQRVGQQLEKTLRMYDNL [SNX33]	-0.337	-0.033
MATLWGGLLRLGSLLSLSCLALSVLLLAQLSDAAKNFEDVRCKCICPPYKENSGHIYNKNISQKDCDCLHVVEPMPVRGPDVEAYCLRCECKYEERSSVTIKVTIIIYLSILGLLLLYMVYLTLVEPILKRRLFGHAQLIQSDDDIGDHQPFANAHDVLARSRSRANVLNKVEYAQQRWKLQVQEQRKSVFDRHVVLS [TMEM9B]	-0.235	-0.12
MNRHLCVWLFRHPSLNGYLQCHIQLHSHQFRQIHLDTRLQVFRQNRNCILHLLSKNWSRRYCHQDTKMLWKHKALQKYMENLSKEYQTLEQCLQHIPVNEENRRSLNRRHAELAPLAAIYQEIQETEQAIEELESMCKSLNKQDEKQLQELALEERQTIDQKINMLYNELFQSLVPKEKYDKNDVILEVTAGRTTGGDICQQFTREIFDMYQNYSCYKHWQFELLNYTPADYGGLHHAAARISGDGVYKHLKYEGGIHRVQRIPEVGLSSRMQRIHTGTMSVIVLPQPDEVDVKLDPKDLRIDTFRAKGAGGQHVNKTDSAVRLVHIPTGLVVECQQERSQIKNKEIAFRVLRARLYQQIIEKDKRQQQSARKLQVGTRAQSERIRTYNFTQDRVSDHRIAYEVRDIKEFLCGGKGLDQLIQRLLQSADEEAIAELLDEHLKSAK [MTRF1]	0.228	-0.0209
MAPGSRGERSSFRSRRGPGVPSPQPDVTMLSRLLKEHQAKQNERKELQEKRRREAITAATCLTEALVDHLNVGVAQAYMNQRKLDHEVKTLQVQAAQFAKQTGQWIGMVENFNQALKEIGDVENWARSIELDMRTIATALEYVYKGQLQSAPS [BLOC1S1]	0.51	0.133
MAETSPEPSGQLVVHSDAHSDTVLASFEDQRKKGFLCDITLIVENVHFRAHKALLAASSEYFSMMFAEEGEIGQSIYMLEGMVADTFGILLEFIYTGYLHASEKSTEQILATAQFLKVYDLVKAYTDFQNNHSSPKPTTLNTAGAPVVVISNKKNDPPKRKRGRPKKVNTLQEEKSELAAEEEIQLRVNNSVQNRQNFVVKGDSGVLNEQIAAKEKEESEPTCEPSREEEMPVEKDENYDPKTEDGQASQSRYSKRRIWRSVKLKDYKLVGDQEDHGSAKRICGRRKRPGGPEARCKDCGKVFKYNHFLAIHQRSHTGERPFKCNECGKGFAQKHSLQVHTRMHTGERPYTCTVCSKALTTKHSLLEHMSLHSGQKSFTCDQCGKYFSQNRQLKSHYRVHTGHSLPECKDCHRKFMDVSQLKKHLRTHTGEKPFTCEICGKSFTAKSSLQTHIRIHRGEKPYSCGICGKSFSDSSAKRRHCILHTGKKPFSCPECNLQFARLDNLKAHLKIHSKEKHASDASSISGSSNTEEVRNILQLQPYQLSTSGEQEIQLLVTDSVHNINFMPGPSQGISIVTAESSQNMTADQAANLTLLTQQPEQLQNLILSAQQEQTEHIQSLNMIESQMGPSQTEPVHVITLSKETLEHLHAHQEQTEELHLATSTSDPAQHLQLTQEPGPPPPTHHVPQPTPLGQEQS [ZBTB24]	-0.495	0.142
MELPAVGEHVFAVESIEKKRIRKGRVEYLVKWRGWSPKYNTWEPEENILDPRLLIAFQNRERQEQLMGYRKRGPKPKPLVVQVPTFARRSNVLTGLQDSSTDNRAKLDLGAQGKGQGHQYELNSKKHHQYQPHSKERAGKPPPPGKSGKYYYQLNSKKHHPYQPDPKMYDLQYQGGHKEAPSPTCPDLGAKSHPPDKWAQGAGAKGYLGAVKPLAGAAGAPGKGSEKGPPNGMMPAPKEAVTGNGIGGKMKIVKNKNKNGRIVIVMSKYMENGMQAVKIKSGEVAEGEARSPSHKKRAADERHPPADRTFKKAAGAEEKKVEAPPKRREEEVSGVSDPQPQDAGSRKLSPTKEAFGEQPLQLTTKPDLLAWDPARNTHPPSHHPHPHPHHHHHHHHHHHHAVGLNLSHVRKRCLSETHGEREPCKKRLTARSISTPTCLGGSPAAERPADLPPAAALPQPEVILLDSDLDEPIDLRCVKTRSEAGEPPSSLQVKPETPASAAVAVAAAAAPTTTAEKPPAEAQDEPAESLSEFKPFFGNIIITDVTANCLTVTFKEYVTV [CBX4]	-0.386	0.583
MAVTKELLQMDLYALLGIEEKAADKEVKKAYRQKALSCHPDKNPDNPRAAELFHQLSQALEVLTDAAARAAYDKVRKAKKQAAERTQKLDEKRKKVKLDLEARERQAQAQESEEEEESRSTRTLEQEIERLREEGSRQLEEQQRLIREQIRQERDQRLRGKAENTEGQGTPKLKLKWKCKKEDESKGGYSKDVLLRLLQKYGEVLNLVLSSKKPGTAVVEFATVKAAELAVQNEVGLVDNPLKISWLEGQPQDAVGRSHSGLSKGSVLSERDYESLVMMRMRQAAERQQLIARMQQEDQEGPPT [DNAJC17]	0.702	0.205
MVVLRSSLELHNHSAASATGSLDLSSDFLSLEHIGRRRLRSAGAAQKKPAATTAKAGDGSSVKEVETYHRTRALRSLRKDAQNSSDSSFEKNVEITEQLANGRHFTRQLARQQADKKKEEHREDKVIPVTRSLRARNIVQSTEHLHEDNGDVEVRRSCRIRSRYSGVNQSMLFDKLITNTAEAVLQKMDDMKKMRRQRMRELEDLGVFNETEESNLNMYTRGKQKDIQRTDEETTDNQEGSVESSEEGEDQEHEDDGEDEDDEDDDDDDDDDDDDDDEDDEDEEDGEEENQKRYYLRQRKATVYYQAPLEKPRHQRKPNIFYSGPASPARPRYRLSSAGPRSPYCKRMNRRRHAIHSSDSTSSSSSEDEQHFERRRKRSRNRAINRCLPLNFRKDELKGIYKDRMKIGASLADVDPMQLDSSVRFDSVGGLSNHIAALKEMVVFPLLYPEVFEKFKIQPPRGCLFYGPPGTGKTLVARALANECSQGDKRVAFFMRKGADCLSKWVGESERQLRLLFDQAYQMRPSIIFFDEIDGLAPVRSSRQDQIHSSIVSTLLALMDGLDSRGEIVVIGATNRLDSIDPALRRPGRFDREFLFSLPDKEARKEILKIHTRDWNPKPLDTFLEELAENCVGYCGADIKSICAEAALCALRRRYPQIYTTSEKLQLDLSSINISAKDFEVAMQKMIPASQRAVTSPGQALSTVVKPLLQNTVDKILEALQRVFPHAEFRTNKTLDSDISCPLLESDLAYSDDDVPSVYENGLSQKSSHKAKDNFNFLHLNRNACYQPMSFRPRILIVGEPGFGQGSHLAPAVIHALEKFTVYTLDIPVLFGVSTTSPEETCAQVIREAKRTAPSIVYVPHIHVWWEIVGPTLKATFTTLLQNIPSFAPVLLLATSDKPHSALPEEVQELFIRDYGEIFNVQLPDKEERTKFFEDLILKQAAKPPISKKKAVLQALEVLPVAPPPEPRSLTAEEVKRLEEQEEDTFRELRIFLRNVTHRLAIDKRFRVFTKPVDPDEVPDYVTVIKQPMDLSSVISKIDLHKYLTVKDYLRDIDLICSNALEYNPDRDPGDRLIRHRACALRDTAYAIIKEELDEDFEQLCEEIQESRKKRGCSSSKYAPSYYHVMPKQNSTLVGDKRSDPEQNEKLKTPSTPVACSTPAQLKRKIRKKSNWYLGTIKKRRKISQAKDDSQNAIDHKIESDTEETQDTSVDHNETGNTGESSVEENEKQQNASESKLELRNNSNTCNIENELEDSRKTTACTELRDKIACNGDASSSQIIHISDENEGKEMCVLRMTRARRSQVEQQQLITVEKALAILSQPTPSLVVDHERLKNLLKTVVKKSQNYNIFQLENLYAVISQCIYRHRKDHDKTSLIQKMEQEVENFSCSR [ATAD2]	-3.07	2.36
MGNLESAEGVPGEPPSVPLLLPPGKMPMPEPCELEERFALVLSSMNLPPDKARLLRQYDNEKKWDLICDQERFQVKNPPHTYIQKLQSFLDPSVTRKKFRRRVQESTKVLRELEISLRTNHIGWVREFLNDENKGLDVLVDYLSFAQCSVMFDFEGLESGDDGAFDKLRSWSRSIEDLQPPSALSAPFTNSLARSARQSVLRYSTLPGRRALKNSRLVSQKDDVHVCILCLRAIMNYQYGFNLVMSHPHAVNEIALSLNNKNPRTKALVLELLAAVCLVRGGHEIILAAFDNFKEVCKELHRFEKLMEYFRNEDSNIDFMVACMQFINIVVHSVEDMNFRVHLQYEFTKLGLEEFLQKSRHTESEKLQVQIQAYLDNVFDVGGLLEDAETKNVALEKVEELEEHVSHLTEKLLDLENENMMRVAELEKQLLQREKELESIKETYENTSHQVHTLRRLIKEKEEAFQRRCHLEPNVRGLESVDSEALARVGPAELSEGMPPSDLDLLAPAPPPEEVLPLPPPPAPPLPPPPPPLPDKCPPAPPLPGAAPSVVLTVGLSAIRIKKPIKTKFRLPVFNWTALKPNQISGTVFSELDDEKILEDLDLDKFEELFKTKAQGPALDLICSKNKTAQKAASKVTLLEANRAKNLAITLRKAGRSAEEICRAIHTFDLQTLPVDFVECLMRFLPTEAEVKLLRQYERERQPLEELAAEDRFMLLFSKVERLTQRMAGMAFLGNFQDNLQMLTPQLNAIIAASASVKSSQKLKQMLEIILALGNYMNSSKRGAVYGFKLQSLDLLLDTKSTDRKMTLLHFIALTVKEKYPDLANFWHELHFVEKAAAVSLENVLLDVKELGRGMELIRRECSIHDNSVLRNFLSTNEGKLDKLQRDAKTAEEAYNAVVRYFGESPKTTPPSVFFPVFVRFIRSYKEAEQENEARKKQEEVMREKQLAQEAKKLDAKTPSQRNKWQQQELIAELRRRQAKEHRPVYEGKDGTIEDIITVLKSVPFTARTAKRGSRFFCDAAHHDESNC [FMNL3]	-0.31	0.267
